Results from paper PMC8017197 (Frontiers in Immunology, 2021).

Molecular target: T1, linear (M1)-tetraubiquitin (UniProt P0CG48 1-76; P0CG48 1-76; P0CG48 1-76; P0CG48 1-76)
T1 construct: ubiquitin, first of four units joined head to tail (Met1-linked); ubiquitin, second unit; ubiquitin, third unit; ubiquitin, fourth unit; Four ubiquitins on one chain, N-terminal Met1 linked to the C-terminus of the unit before; also called linear (M1)-linked tetraubiquitin; source: bought: Boston Biochem
Assay: pull-down; GST-fusion proteins with tetraubiquitin (3.4 μg), then glutathione Sepharose at 4°C 1 h; bound ubiquitin detected by anti-ubiquitin immunoblotting
Details: both partners purified

T1 sequence (P0CG48 1-304, one chain of several): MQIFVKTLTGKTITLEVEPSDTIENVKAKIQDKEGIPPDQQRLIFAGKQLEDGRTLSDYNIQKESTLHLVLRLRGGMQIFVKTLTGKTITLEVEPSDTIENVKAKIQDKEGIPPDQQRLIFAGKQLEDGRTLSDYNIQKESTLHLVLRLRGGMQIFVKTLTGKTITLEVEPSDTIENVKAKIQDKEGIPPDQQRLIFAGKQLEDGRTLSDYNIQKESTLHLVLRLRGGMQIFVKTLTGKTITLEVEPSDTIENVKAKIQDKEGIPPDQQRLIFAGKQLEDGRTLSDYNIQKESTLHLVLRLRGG

B1: GST-fused UBZ domain (a.a. 394-446) of NDP52 (domain or fragment, human, UniProt Q13137 394-446, looked up)
chain: IKKCPICKADDICDHTLEQQQMQPLCFNCPICDKIFPATEKQIFEDHVFCHSL
notes: NDP52 (CALCOCO2), human, UBZ domain, a.a; Vector pGEX6p-1; also called GST-fused NDP52-UBZ domain; source: E. coli BL21 (DE3)pLysS, purified with a GSTrap column
binding result: binds
